Measurements as given in PMC2582589 (Structure (London, England : 1993), 2008).
Residue numbers refer to the chain shown, from its start. Names may count otherwise. Read-outs that look alike come from different tables or passages of the source. Square brackets hold non-standard residues; d marks the D form. Ends that are not written are not given here. Lys(Me3) = C[N+](C)(C)CCCC[C@H](N)C(=O)O

Tests used:
[1] = biological target: T1, Eaf3 chromo barrel domain (1–113 aa) (Saccharomyces cerevisiae, UniProt Q12432); experiment: 15N-1H HSQC NMR titration of 15N-labeled Eaf3; assay type: binding; conditions: for affinity for Eaf3 (in words): HSQC titration, pH 6.7; for affinity relative to other methylated ligands (in words): from KD comparison
T1 sequence (Q12432 1-113): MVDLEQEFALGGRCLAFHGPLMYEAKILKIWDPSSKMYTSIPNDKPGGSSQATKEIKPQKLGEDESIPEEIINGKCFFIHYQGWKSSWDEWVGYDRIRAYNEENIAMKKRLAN

[2] = Protein stability, precipitation or aggregation of Eaf3 constructs; assay type: physicochemical; conditions: purified proteins expressed in Escherichia coli or NMR samples
[3] = test system: Eaf3 chromo barrel domain and linked H3KC36me2; experiment: 15N-1H HSQC spectra of fused Eaf3-H3C36; assay type: binding, Saccharomyces cerevisiae; conditions: 15N-1H HSQC before and after dimethylation, 300K, pH 6.7
[4] = Gel filtration chromatography of extended Eaf3; assay type: physicochemical; conditions: change in gel filtration chromatography retention time (data not shown)
[5] = biological target: T2, Eaf3 chromo barrel domain (1–113 aa) (S. cerevisiae, UniProt Q12432 1-113); experiment: NMR titration
T2 sequence (looked up): T1 sequence (Q12432 1-113)

[6] = read-out: dissociation constant (KD), 15N-1H HSQC titration, 15N-labeled Eaf3 (1–113 aa), 300K, 20 mM NaPi pH 6.7, 50 mM NaCl, 1 mM EDTA, 2 mM DTT, range of estimates from amide peaks of two to four selected amino acids, curve fitting

## CN(C)C(N)=NCCC[C@H](N)C(=O)O [asymmetrically dimethylated arginine, reference compound]
[1]; 300K
  affinity for Eaf3 (in words): does not have any significant affinity

## C[N+](C)(C)CCCC[C@H](N)C(=O)O [trimethyllysine, trimethylated lysine, reference compound]
[1]
  Kd: 8.6 to 19.2 mM
  affinity relative to other methylated ligands (in words): significantly lower than that measured with trimethylated peptides under similar conditions

## ATGGVK36me3KPHRYR [H3K36me3]
[1]; 300K
  affinity for Eaf3 (in words): very low affinity (KD in the millimolar range)
[1]; 300K, listed as methylated H3K36 peptide
  affinity for Eaf3 (in words): millimolar-range affinity
[1]
  affinity relative to other methylated ligands (in words): comparable to that determined for the Eaf3-H3K4me3 complex
[1]; [6]
  Kd: 1.8 to 3.4 mM

## ATGGVKC36me3KPHRYR (ATGGVCKPHRYR; not fully specified (residue 6)) [H3KC36me3]
[1]
  affinity relative to other methylated ligands (in words): only slightly lower than that of the H3K36me3 peptide

## KRHRK20me3VLRDN [H4K20me3]
[1]; [6]
  Kd: 3 to 4 mM

B1: Y23A: single-point mutation in Eaf3-H3C36 (protein, UniProt Q12432 1-401, looked up, variant Y23A)
Chromatin …: MVDLEQEFALGGRCLAFHGPLMAEAKILKIWDPSSKMYTSIPNDKPGGSSQATKEIKPQKLGEDESIPEEIINGKCFFIHYQGWKSSWDEWVGYDRIRAYNEENIAMKKRLANEAKEAKKSLLEQQKKKKLSTSLGGPSNGGKRKGDSRSNASISKSTSQSFLTSSVSGRKSGRSSANSLHPGSSLRSSSDQNGNDDRRRSSSLSPNMLHHIAGYPTPKISLQIPIKLKSVLVDDWEYVTKDKKICRLPADVTVEMVLNKYEHEVSQELESPGSQSQLSEYCAGLKLYFDKCLGNMLLYRLERLQYDELLKKSSKDQKPLVPIRIYGAIHLLRLISVLPELISSTTMDLQSCQLLIKQTEDFLVWLLMHVDEYFNDKDPNRSDDALYVNTSSQYEGVALGM
modifications: fused to histone H3 peptide
[2]
  protein stability / precipitation / aggregation (in words): unstable and highly prone to precipitation

B2: W88A: single-point mutation in Eaf3-H3C36 (protein, UniProt Q12432 1-401, looked up, variant W88A)
Chromatin …: B1 Chromatin … with A23Y, W88A
modifications: fused to histone H3 peptide
[3]
  spectral change upon dimethylation of fused H3C36: Very little spectral change

B3: Y81A: single-point mutation in Eaf3-H3C36 (protein, UniProt Q12432 1-401, looked up, variant Y81A)
Chromatin …: B1 Chromatin … with A23Y, Y81A
modifications: fused to histone H3 peptide
[2]
  protein stability / precipitation / aggregation (in words): unstable and highly prone to precipitation

B4: W84A: single-point mutation in Eaf3-H3C36 (protein, UniProt Q12432 1-401, looked up, variant W84A)
Chromatin …: B1 Chromatin … with A23Y, W84A
modifications: fused to histone H3 peptide
[3]
  spectral change upon dimethylation of fused H3C36: Very little spectral change
[2]
  protein stability / precipitation / aggregation (in words): prone to precipitation

B5: Eaf3 (1–126 aa): Eaf3 extended by 13 residues (protein)
chain: MVDLEQEFALGGRCLAFHGPLMYEAKILKIWDPSSKMYTSIPNDKPGGSSQATKEIKPQKLGEDESIPEEIINGKCFFIHYQGWKSSWDEWVGYDRIRAYNEENIAMKKRLANEAKEAKKSLLEQQ
[4]
  oligomerization (in words): apparent homodimerization

B6: Eaf3: N-terminal 1–113 aa of budding yeast Eaf3 (protein)
chain: T1 sequence (Q12432 1-113)
[2]
  protein stability / precipitation / aggregation (in words): has a tendency to aggregate

## KRHR[Lys(Me3)]VLRDN [H4K20me3 peptide (16–25 aa)]
[5]
  Kd: 3 to 4 mM

## ATGGV[Lys(Me3)]KPHRYR [H3K36me3 peptide (31–42 aa)]
[5]
  Kd: 1.8 to 3.4 mM

## ATGGVCKPHRYR (not fully specified (residue 6)) [H3KC36me3 peptide (31–42 aa)]
[5]
  Kd: 5 to 7 mM

## ART[Lys(Me3)]QTARKS [H3K4me3 peptide (1–10 aa)]
[5]
  Kd: 1 to 3 mM
